Data reported in patent publication US20260217796A1 (NANJING GENSCRIPT BIOTECH, published 2026).

Target: T1, recombinant AAV2 virus-like particles (VLPs) of capsid proteins VP1, VP2 and VP3 (AAV2, UniProt P03135 1-735; P03135 139-735; P03135 203-735)
T1 construct: also called AAV2 VLP; antigen
Experiment: indirect ELISA, plate coated with 1 ug/mL AAV2 VLP, 3-fold antibody dilutions from 1 ug/mL

T1 sequence (P03135 whole entry, chain 1 of 3): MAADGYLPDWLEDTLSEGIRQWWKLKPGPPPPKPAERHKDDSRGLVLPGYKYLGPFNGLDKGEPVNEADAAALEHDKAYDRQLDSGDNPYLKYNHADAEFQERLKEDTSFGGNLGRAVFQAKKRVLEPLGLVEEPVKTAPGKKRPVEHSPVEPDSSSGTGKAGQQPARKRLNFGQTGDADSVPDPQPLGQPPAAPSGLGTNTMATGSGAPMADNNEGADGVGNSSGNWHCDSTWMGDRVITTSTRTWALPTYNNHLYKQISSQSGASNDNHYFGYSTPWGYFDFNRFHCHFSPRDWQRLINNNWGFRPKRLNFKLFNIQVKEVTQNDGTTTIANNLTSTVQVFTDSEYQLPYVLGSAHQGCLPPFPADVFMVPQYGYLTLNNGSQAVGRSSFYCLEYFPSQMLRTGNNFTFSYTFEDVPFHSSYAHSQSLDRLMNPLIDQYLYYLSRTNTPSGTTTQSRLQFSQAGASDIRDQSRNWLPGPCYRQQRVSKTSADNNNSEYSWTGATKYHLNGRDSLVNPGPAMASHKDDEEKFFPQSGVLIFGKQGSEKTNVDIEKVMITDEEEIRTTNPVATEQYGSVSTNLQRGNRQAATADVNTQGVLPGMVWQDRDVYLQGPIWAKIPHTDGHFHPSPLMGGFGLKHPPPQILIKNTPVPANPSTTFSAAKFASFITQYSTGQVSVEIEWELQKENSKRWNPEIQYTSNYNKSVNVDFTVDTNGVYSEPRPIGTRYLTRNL
T1 sequence (P03135 139-735, tags left off, chain 2 of 3): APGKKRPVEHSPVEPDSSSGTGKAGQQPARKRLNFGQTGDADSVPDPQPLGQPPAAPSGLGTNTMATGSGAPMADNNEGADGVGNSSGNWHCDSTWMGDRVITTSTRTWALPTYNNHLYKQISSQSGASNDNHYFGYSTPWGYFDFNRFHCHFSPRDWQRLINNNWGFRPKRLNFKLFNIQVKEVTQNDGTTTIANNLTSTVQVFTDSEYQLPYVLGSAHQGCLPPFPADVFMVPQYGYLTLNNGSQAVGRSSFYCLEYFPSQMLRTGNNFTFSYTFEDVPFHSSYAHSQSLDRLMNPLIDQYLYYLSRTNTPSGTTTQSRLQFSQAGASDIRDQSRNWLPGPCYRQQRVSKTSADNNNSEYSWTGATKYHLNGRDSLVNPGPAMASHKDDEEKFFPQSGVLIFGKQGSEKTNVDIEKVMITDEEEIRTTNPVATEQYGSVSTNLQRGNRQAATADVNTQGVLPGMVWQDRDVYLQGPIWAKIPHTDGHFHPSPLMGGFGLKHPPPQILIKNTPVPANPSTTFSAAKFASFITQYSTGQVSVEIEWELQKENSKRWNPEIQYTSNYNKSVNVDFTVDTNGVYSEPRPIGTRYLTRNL
T1 sequence (P03135 203-735 limits assumed, chain 3 of 3): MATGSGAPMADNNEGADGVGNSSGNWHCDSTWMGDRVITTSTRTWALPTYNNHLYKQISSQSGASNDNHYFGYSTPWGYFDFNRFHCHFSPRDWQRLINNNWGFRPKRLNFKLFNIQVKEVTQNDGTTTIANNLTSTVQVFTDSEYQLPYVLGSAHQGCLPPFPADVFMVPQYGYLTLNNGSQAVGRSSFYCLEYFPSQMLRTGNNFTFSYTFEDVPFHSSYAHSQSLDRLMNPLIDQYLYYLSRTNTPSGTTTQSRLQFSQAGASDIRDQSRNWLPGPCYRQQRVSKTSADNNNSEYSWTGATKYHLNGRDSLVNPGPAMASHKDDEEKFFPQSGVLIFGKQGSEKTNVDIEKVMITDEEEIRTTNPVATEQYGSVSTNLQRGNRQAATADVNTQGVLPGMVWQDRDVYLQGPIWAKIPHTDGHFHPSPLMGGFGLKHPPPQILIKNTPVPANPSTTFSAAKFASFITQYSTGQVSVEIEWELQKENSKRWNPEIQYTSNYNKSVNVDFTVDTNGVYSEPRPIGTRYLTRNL

Binder	EC50 [ng/mL]
33G5-3 (antibody, V domains shown, Expressed recombinantly in ExpiCHO-S cells, purified on protein A as IgG and detected with anti-rabbit IgG (Fc-specific); also called anti-AAV2 rabbit monoclonal antibody 33G5-3; Biotin-33G5-3) VH: QSVEESGGRLVTPGTPLTLTCTVSGIDLSSYAMSWVRQAPGKGLEWIGTINSDNYRYFGSWAKGRFTISKTSTTVDLKITSPTTEDTATYFCARQRGTSSGNAMDLWGPGTLVTVSS VL: DVVMTQTPASVSAALGGTVTIKCQASQSIGSYLNWYQQKPGQPPKLLIYAASTLAYGVSSRFRGSGSGTEFTLTISDLECADAATYYCQTYYISDSSSHVFGGGTEVVVK	1.62
8H8-1 (antibody, V domains shown, Expressed recombinantly in ExpiCHO-S cells, purified on protein A as IgG and detected with anti-rabbit IgG (Fc-specific); also called anti-AAV2 rabbit monoclonal antibody 8H8-1; combination A) VH: QSLVESGGGLVQPEGSLTLTCTASGFSFSNVYYMCWVRQAPGKGPDWIACIYINADSTYYPSWATGRFTISKTSSTTVTLQMTSLTAADTATYFCARVAAYYDVYFNLWGPGTVVTVSS VL: AVVMTQTASPVSAAVGGTVTINCQASQSISSSYLSWYQQKPGQPPKLLIYYASILTSGVPSRFKGSGDGTEYSLTISGVQCDDAATYYCLYGRYSGASIDTVFGGGTEVVVK	1.46
19E10-3 (antibody, V domains shown, Expressed recombinantly in ExpiCHO-S cells, purified on protein A as IgG and detected with anti-rabbit IgG (Fc-specific); also called anti-AAV2 rabbit monoclonal antibody 19E10-3; combination C) VH: QSLEESGGDLVKPGSSLTLTCTASRFSFSGDYDMCWVRQAPGKGLEWIACIGAGDAITYYTNWARGRFTITYTSSTTMTLQLTSLTVADTAAYFCAAGADFAFKLWGPGTLVTVSS VL: DIVMTQTPASVEAAVGGTVTIKCQASQSIMSLLAWYQQKPGQPPKLLIYEASKLASGVPSRFSGSGSGTQFTLTISDLECADAATYYCQGYVESSGRHYRFWAFGGGTEVVVK	3.94
15G4-4 (antibody, V domains shown, Expressed recombinantly in ExpiCHO-S cells, purified on protein A as IgG and detected with anti-rabbit IgG (Fc-specific); also called anti-AAV2 rabbit monoclonal antibody 15G4-4; combination B) VH: QSVEESGGRLVTPGTPLTLTCTVSGFSLNSYTVNWVRQAPGKGLEWIGFISGGSGITNYATWAKGRFTISKTSTTVDLKLPSPTTEDTATYFCARGRYPGYGGDDYEDYYFNLWGQGTLVTVSS VL: DVVMTQTQASVSAAVGGTVTIKCQASESIGSYLAWYQQKPGQPPRLLIYQASTLASGVSSRFKGSGSGTQFTLTISDLECDDAATYYCQGEFSCDGAHCNAFGGGTEVVVK	1.77
